A word on the Kd: it is the constant that tells how readily two partners part at equilibrium. Higher therefore signals a looser complex.

Where a chain is given by its changes, count along the chain named. In names and notes the source's numbering stands.

The record followed here is paper PMC10786891, “Massively parallel profiling of RNA-targeting CRISPR-Cas13d”.

T1: EsCas13d, nuclease-dead (Eubacterium siraeum, UniProt B0MS50, R295A;H300A;R849A;H854A)
T1 sequence: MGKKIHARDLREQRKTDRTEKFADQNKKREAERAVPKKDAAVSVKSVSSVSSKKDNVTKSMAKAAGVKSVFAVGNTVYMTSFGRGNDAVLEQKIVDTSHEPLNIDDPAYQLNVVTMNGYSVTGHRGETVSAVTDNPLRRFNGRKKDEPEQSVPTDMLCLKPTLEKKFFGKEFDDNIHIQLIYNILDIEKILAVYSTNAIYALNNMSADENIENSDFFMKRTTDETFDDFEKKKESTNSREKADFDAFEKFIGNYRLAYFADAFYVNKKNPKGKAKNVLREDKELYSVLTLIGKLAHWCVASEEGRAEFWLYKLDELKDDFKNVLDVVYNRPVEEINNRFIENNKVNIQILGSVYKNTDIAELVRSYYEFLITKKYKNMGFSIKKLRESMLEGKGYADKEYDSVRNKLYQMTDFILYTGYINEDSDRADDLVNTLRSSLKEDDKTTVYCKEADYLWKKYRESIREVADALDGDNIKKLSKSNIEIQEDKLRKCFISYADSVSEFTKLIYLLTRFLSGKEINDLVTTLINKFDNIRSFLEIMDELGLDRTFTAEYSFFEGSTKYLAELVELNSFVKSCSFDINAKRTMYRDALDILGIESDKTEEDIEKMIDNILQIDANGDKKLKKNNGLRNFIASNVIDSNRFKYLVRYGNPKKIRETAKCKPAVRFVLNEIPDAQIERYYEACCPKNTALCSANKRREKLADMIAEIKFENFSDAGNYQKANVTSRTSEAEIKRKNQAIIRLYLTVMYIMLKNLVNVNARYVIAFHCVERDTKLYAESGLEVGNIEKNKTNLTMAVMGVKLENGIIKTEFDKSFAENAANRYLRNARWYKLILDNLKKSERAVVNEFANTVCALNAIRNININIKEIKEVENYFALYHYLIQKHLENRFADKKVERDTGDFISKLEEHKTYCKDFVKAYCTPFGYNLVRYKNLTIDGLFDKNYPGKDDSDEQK

B1: target 1 G5C,U10G (mixed)
RNA 1: CACCCGUGCAAAAAUGCAGGGGUCUAAAACUGAGCGGAUAACCUCUCUAUGG
RNA 2: GGGAAUGGAUCCACAUCUACGAAUUCGUACCAUAGAGAGGUGAUCCCCUCACCGAGAUCGGAAGAGCACACGU
B2: target 1 insU 3' of 13,insG 3' of 9 (mixed)
RNA 1: B1 RNA 1
RNA 2: GGGAAUGGAUCCACAUCUACGAAUUCGUACCAUAGAGAGUGUUAGUCCGCUCACCGAGAUCGGAAGAGCACACGU
B3: target 1 C2G,A20C (mixed)
RNA 1: B1 RNA 1
RNA 2: B1 RNA 2 with A32C, G42U, C47G, C50G
B4: target 1 insC 3' of 12,insG 3' of 7 (mixed)
RNA 1: B1 RNA 1
RNA 2: B2 RNA 2 with U40G, G41C, G45U, U46C, C47G
B5: target 1 A18U,A20U (mixed)
RNA 1: B1 RNA 1
RNA 2: B1 RNA 2 with A32U, A34U, G42U, C47G
B6: target 1 insG 3' of 21,insG 3' of 7 (mixed)
RNA 1: B1 RNA 1
RNA 2: GGGAAUGGAUCCACAUCUACGAAUUCGUACCGAUAGAGAGGUUAUCGCGCUCACCGAGAUCGGAAGAGCACACGU
B7: target 1 C2U,G13C (mixed)
RNA 1: B1 RNA 1
RNA 2: B1 RNA 2 with G39C, G42U, C47G, C50U
B8: target 1 C4G,U11G (mixed)
RNA 1: B1 RNA 1
RNA 2: B1 RNA 2 with U41G, G42U, C47G, C48G
B9: target 1 C2U,G17A (mixed)
RNA 1: B1 RNA 1
RNA 2: B1 RNA 2 with G35A, G42U, C47G, C50U
B10: target 1 insA 3' of 22,insU 3' of 14 (mixed)
RNA 1: B1 RNA 1
RNA 2: B6 RNA 2 with C31A, G32C, G40U, U42G, A44U, U45A, C46U, G47C
B11: target 1 insA 3' of 17,insG 3' of 9 (mixed)
RNA 1: B1 RNA 1
RNA 2: B2 RNA 2 with G37A, A38G, G39A, U40G
B12: target 1 G5C,G12C (mixed)
RNA 1: B1 RNA 1
RNA 2: B1 RNA 2 with G40C, G42U
B13: target 1 G12U,C21A (mixed)
RNA 1: B1 RNA 1
RNA 2: B1 RNA 2 with C31A, G40U, G42U, C47G
B14: target 1 insU 3' of 14,insU 3' of 14 (mixed)
RNA 1: B1 RNA 1
RNA 2: B2 RNA 2 with G39U, U42G, A44U, G45A
B15: target 1 insA 3' of 15,insG 3' of 8 (mixed)
RNA 1: B1 RNA 1
RNA 2: B2 RNA 2 with G39A, U40G, G45U, U46G
B16: target 1 insU 3' of 4,insG 3' of 2 (mixed)
RNA 1: B1 RNA 1
RNA 2: GGGAAUGGAUCCACAUCUACGAAUUCGUACCAUAGAGAGGUUAUCCGCUUCGACCGAGAUCGGAAGAGCACACGU
B17: target 1 U11A,G17C (mixed)
RNA 1: B1 RNA 1
RNA 2: B1 RNA 2 with G35C, U41A, G42U, C47G
B18: target 1 insA 3' of 19,insG 3' of 7 (mixed)
RNA 1: B1 RNA 1
RNA 2: B6 RNA 2 with G32A, A33U, U34A
B19: target 1 insA 3' of 17,insU 3' of 12 (mixed)
RNA 1: B1 RNA 1
RNA 2: B2 RNA 2 with G37A, A38G, G39A, U40G, A44U, G45A
B20: target 1 C6A,A16C (mixed)
RNA 1: B1 RNA 1
RNA 2: B1 RNA 2 with A36C, G42U, C46A, C47G
B21: target 1 complement block 5-7 (mixed)
RNA 1: B1 RNA 1
RNA 2: B1 RNA 2 with G42U, C45G, C46G
B22: target 1 del7,del15 (mixed)
RNA 1: B1 RNA 1
RNA 2: GGGAAUGGAUCCACAUCUACGAAUUCGUACCAUAGAAGGUUAUCGCUCACCGAGAUCGGAAGAGCACACGU
B23: target 1 G5A,U10C (mixed)
RNA 1: B1 RNA 1
RNA 2: B1 RNA 2 with G42C, C47A
B24: target 1 U19G,C21A (mixed)
RNA 1: B1 RNA 1
RNA 2: B1 RNA 2 with C31A, U33G, G42U, C47G
B25: target 1 insU 3' of 13,insG 3' of 11 (mixed)
RNA 1: B1 RNA 1
RNA 2: B2 RNA 2 with U43G, A44U, G45A
B26: target 1 insU 3' of 21,insG 3' of 7 (mixed)
RNA 1: B1 RNA 1
RNA 2: B6 RNA 2 with G32U
B27: target 1 insU 3' of 17,insU 3' of 4 (mixed)
RNA 1: B1 RNA 1
RNA 2: B6 RNA 2 with G32A, A33U, U34A, A35G, G36U, G47C, C48G, G49C, C50U
B28: target 1 insC 3' of 19,insU 3' of 4 (mixed)
RNA 1: B1 RNA 1
RNA 2: B6 RNA 2 with G32A, A33U, U34C, G47C, C48G, G49C, C50U
B29: target 1 insA 3' of 8,insA 3' of 5 (mixed)
RNA 1: B1 RNA 1
RNA 2: B16 RNA 2 with C45A, G47C, C48G, U49A, U50C, C51U, G52C
B30: target 1 insC 3' of 17,insU 3' of 15 (mixed)
RNA 1: B1 RNA 1
RNA 2: B2 RNA 2 with A36C, G37A, A38G, G39U, U40A, U42G, A44U, G45A
B31: target 1 C7U,A20C (mixed)
RNA 1: B1 RNA 1
RNA 2: B1 RNA 2 with A32C, G42U, C45U, C47G
B32: target 1 C4G,A14C (mixed)
RNA 1: B1 RNA 1
RNA 2: B1 RNA 2 with A38C, G42U, C47G, C48G

This data set addresses T1, EsCas13d, nuclease-dead. Put plainly: crRNA (strand 1, pre-loaded); Mg2+; 40 mM Tris-HCl pH 7.5, 150 mM NaCl, 6 mM MgCl2, 1 mM DTT, 0.1% Tween-20, 0.2 mg/ml BSA; 25 C; 10 min per concentration, then washed. The conditions noted are these: tags: His6-TwinStrep-SUMO cleaved; N-terminal SNAP kept (SNAP-Surface 488); label: 3' end held by stalled T7 RNA polymerase.
The molecule B1 returned a Kd of 0.0175 ± 0.0009 µM.
In turn, B2 had a dissociation constant Kd of 0.0248 ± 0.0032 µM. This Kd and that of the molecule before are within 1.5-fold of each other.
Molecule B3 had a Kd of 0.0218 ± 0.0011 µM.
With B4, the Kd was 0.0162 ± 0.0009 µM.
Turning to B5, the dissociation constant Kd was 0.095 ± 0.017 µM.
Regarding B6, the equilibrium dissociation constant (Kd) amounted to 0.068 ± 0.005 µM.
In turn, B7 yielded a dissociation constant Kd of 0.044 ± 0.007 µM.
The value for B8 was 0.00573 ± 0.00029 µM; that for B9 was 0.0344 ± 0.0027 µM.
The result for B10 reads 0.041 ± 0.02 µM; that for B11, 0.0222 ± 0.0025 µM; that for B12, 0.0304 ± 0.0018 µM.
As for B13, binding was put at a Kd of 0.0274 ± 0.0023 µM.
Molecule B14 came in with a Kd of 0.021 ± 0.0013 µM.
As for B15, the Kd came out at 0.0079 ± 0.0004 µM. This Kd is about 2.7-fold lower than that of the molecule before.
The molecule B16 had an equilibrium dissociation constant (Kd) of 0.0074 ± 0.0005 µM.
Take B17: the Kd is ~0.07 µM.
B18 gave an equilibrium dissociation constant (Kd) of 0.0163 ± 0.0014 µM.
Consider B19, for which the Kd was found to be 0.0104 ± 0.0006 µM.
The value for B20 was 0.0354 ± 0.0022 µM; that for B21 was 0.0329 ± 0.0015 µM; that for B22 was 0.0173 ± 0.0007 µM.
The result for B23 reads 0.047 ± 0.005 µM; that for B24, 0.056 ± 0.007 µM; that for B25, 0.039 ± 0.008 µM.
The result for B26 reads 0.0236 ± 0.002 µM; that for B27, 0.0192 ± 0.0021 µM; that for B28, 0.0322 ± 0.0032 µM.
Take B29: the equilibrium dissociation constant (Kd) is 0.0188 ± 0.0015 µM.
B30 gave a dissociation constant Kd of 0.0191 ± 0.001 µM.
The value for B31 was 0.037 ± 0.008 µM; that for B32 was 0.0141 ± 0.0028 µM.
